Measurements taken from patent publication US20230346885A1 (published 2023).

Experiments:
Experiment in all cases: binding, other
NPSR1 peptide on HLA = target: T1, NPSR1 peptide on HLA (human)
T1 peptide: VIIQNLPAL

PAGE5 peptide on HLA = target: T2, PAGE5 peptide on HLA (human)
T2 peptide: TLPTFDPTKV

NR0B1 peptide on HLA [1] = target: T3, NR0B1 peptide on HLA (human)
T3 peptide: GLPGGRPVAL

RLN1 peptide on HLA = target: T4, RLN1 peptide on HLA (human)
T4 peptide: FIANLPPELKA

PAEP peptide on HLA = target: T5, PAEP peptide on HLA (human)
T5 peptide: AMATNNISL

PAGE2 peptide on HLA = target: T6, PAGE2 peptide on HLA (human)
T6 peptide: IMPTFDLTKV

NR0B1 peptide on HLA [2] = target: T7, NR0B1 peptide on HLA (human)
T7 peptide: GLLKTLRFV

B1: TCR of SEQ ID NOs 445 and 446 (TCR, V domains shown)
Valpha: KQEVTQIPAALSVPEGENLVLNCSFTDSAIYNLQWFRQDPGKGLTSLLLIQSSQREQTSGRLNASLDKSSGRSTLYIAASQPGDSATYLCAVSPVTSYDKVIFGPGTSLSVIP
Vbeta: NAGVTQTPKFRVLKTGQSMTLLCAQDMNHEYMYWYRQDPGMGLRLIYYSASEGTTDKGEVPNGYNVSRLNKREFSLRLESAAPSQTSVYFCASSYSWFGDGTEAFFGQGTRLTVV
B1: recognises (NPSR1 peptide on HLA).

B2: TCR of SEQ ID NOs 493 and 494 (TCR, V domains shown)
Valpha: KQEVTQIPAALSVPEGENLVLNCSFTDSAIYNLQWFRQDPGKGLTSLLLIQSSQREQTSGRLNASLDKSSGRSTLYIAASQPGDSATYLCAVGNSGGYQKVTFGTGTKLQVIP
Vbeta: NAGVTQTPKFQVLKTGQSMTLQCAQDMNHEYMSWYRQDPGMGLRLIHYSVGAGITDQGEVPNGYNVSRSTTEDFPLRLLSAAPSQTSVYFCASSYSTGSYEQYFGPGTRLTVT
B2: recognises (PAGE5 peptide on HLA).

B3: TCR of SEQ ID NOs 495 and 496 (TCR, V domains shown)
Valpha: KQEVTQIPAALSVPEGENLVLNCSFTDSAIYNLQWFRQDPGKGLTSLLLIQSSQREQTSGRLNASLDKSSGRSTLYIAASQPGDSATYLCAVGNSGGYQKVTFGTGTKLQVIP
Vbeta: NAGVTQTPKFQVLKTGQSMTLQCAQDMNHEYMSWYRQDPGMGLRLIHYSVGAGITDQGEVPNGYNVSRSTTEDFPLRLLSAAPSQTSVYFCASSYSTGSYGYTFGSGTRLTVV
B3: recognises (PAGE5 peptide on HLA).

B4: TCR of SEQ ID NOs 491 and 492 (TCR, V domains shown)
Valpha: KQEVTQIPAALSVPEGENLVLNCSFTDSAIYNLQWFRQDPGKGLTSLLLIQSSQREQTSGRLNASLDKSSGRSTLYIAASQPGDSATYLCAVSNSGGYQKVTFGTGTKLQVIP
Vbeta: NAGVTQTPKFQVLKTGQSMTLQCAQDMNHEYMSWYRQDPGMGLRLIHYSVGAGITDQGEVPDGYNVSRSTTEDFPLRLLSAAPSQTSVYFCASSYSTGSYEQYFGPGTRLTVT
B4: recognises (PAGE5 peptide on HLA).

B5: TCR of SEQ ID NOs 457 and 458 (TCR, V domains shown)
Valpha: KQEVTQIPAALSVPEGENLVLNCSFTDSAIYNLQWFRQDPGKGLTSLLLIQSSQREQTSGRLNASLDKSSGRSTLYIAASQPGDSATYLCAVSGYSTLTFGKGTMLLVSP
Vbeta: NAGVTQTPKFRVLKTGQSMTLLCAQDMNHEYMYWYRQDPGMGLRLIHYSVGEGTTAKGEVPDGYNVSRLKKQNFLLGLESAAPSQTSVYFCASTGGGPPLNTEAFFGQGTRLTVV
B5: recognises (NR0B1 peptide on HLA [1]).

B6: TCR of SEQ ID NOs 459 and 460 (TCR, V domains shown)
Valpha: KQEVTQIPAALSVPEGENLVLNCSFTDSAIYNLQWFRQDPGKGLTSLLLIQSSQREQTSGRLNASLDKSSGRSTLYIAASQPGDSATYLCAASGYSTLTFGKGTMLLVSP
Vbeta: NAGVTQTPKFQVLKTGQSMTLQCAQDMNHEYMSWYRQDPGMGLRLIHYSVGAGITDQGEVPNGYNVSRSTTEDFPLRLLSAAPSQTSVYFCASRLGQFGQAFFGQGTRLTVV
B6: recognises (NR0B1 peptide on HLA [1]).

B7: TCR of SEQ ID NOs 517 and 518 (TCR, V domains shown)
Valpha: KQEVTQIPAALSVPEGENLVLNCSFTDSAIYNLQWFRQDPGKGLTSLLLIQSSQREQTSGRLNASLDKSSGRSTLYIAASQPGDSATYLCAPGGYQKVTFGTGTKLQVIP
Vbeta: NAGVTQTPKFQVLKTGQSMTLQCAQDMNHEYMSWYRQDPGMGLRLIHYSVGAGITDQGEVPNGYNVSRSTTEDFPLRLLSAAPSQTSVYFCASRRDPLGGYTFGSGTRLTVV
B7: recognises (RLN1 peptide on HLA).

B8: TCR of SEQ ID NOs 465 and 466 (TCR, V domains shown)
Valpha: KQEVTQIPAALSVPEGENLVLNCSFTDSAIYNLQWFRQDPGKGLTSLLLIQSSQREQTSGRLNASLDKSSGRSTLYIAASQPGDSATYLCAVRSYNQFYFGTGTSLTVIP
Vbeta: NAGVTQTPKFQVLKTGQSMTLQCAQDMNHEYMSWYRQDPGMGLRLIHYSVGAGITDQGEVPNGYNVSRSTTEDFPLRLLSAAPSQTSVYFCASSPGGPSTEAFFGQGTRLTVV
B8: recognises (PAEP peptide on HLA).

B9: TCR of SEQ ID NOs 489 and 490 (TCR, V domains shown)
Valpha: KQEVTQIPAALSVPEGENLVLNCSFTDSAIYNLQWFRQDPGKGLTSLLLIQSSQREQTSGRLNASLDKSSGRSTLYIAASQPGDSATYLCAVRGDYKLSFGAGTTVTVRA
Vbeta: NAGVTQTPKFQVLKTGQSMTLQCAQDMNHNSMYWYRQDPGMGLRLIYYSASEGTTDKGEVPNGYNVSRLNKREFSLRLESAAPSQTSVYFCASSDPLGGLYGYTFGSGTRLTVV
B9: recognises (PAGE2 peptide on HLA).

B10: TCR of SEQ ID NOs 463 and 464 (TCR, V domains shown)
Valpha: KQEVTQIPAALSVPEGENLVLNCSFTDSAIYNLQWFRQDPGKGLTSLLLIQSSQREQTSGRLNASLDKSSGRSTLYIAASQPGDSATYLCAVQGGSEKLVFGKGTKLTVNP
Vbeta: NAGVTQTPKFQVLKTGQSMTLQCAQDMNHNSMYWYRQDPGMGLRLIYYSASEGTTDKGEVPNGYNVSRLNKREFSLRLESAAPSQTSVYFCASSEEWSYGYTFGSGTRLTVV
B10: recognises (PAEP peptide on HLA).

B11: TCR of SEQ ID NOs 519 and 520 (TCR, V domains shown)
Valpha: KQEVTQIPAALSVPEGENLALNCSFTDSAIYNLQWFRQDPGKGLTSLLLIQSSQREQTSGRLNASLDKSSGRSTLYIAASQPGDSATYLCAVNAGGTSYGKLTFGQGTILTVHP
Vbeta: NAGVTQTPKFQVLKTGQSMTLQCAQDMNHNSMYWYRQDPGMGLRLIYYSASEGTTDKGEVPNGYNVSRLNKREFSLRLESAAPSQTSVYFCASSYWREYYEQYFGPGTRLTVT
B11: recognises (RLN1 peptide on HLA).

B12: TCR of SEQ ID NOs 451 and 452 (TCR, V domains shown)
Valpha: KQEVTQIPAALSVPEGENLVLNCSFTDSAIYNLQWFRQDPGKGLTSLLLIQSSQREQTSGRLNASLDKSSGRSTLYIAASQPGDSATYLCAVGTDSWGKFQFGAGTQVVVTP
Vbeta: NAGVTQTPKFQVLKTGQSMTLQCAQDMNHEYMSWYRQDPGMGLRLIHYSVGAGITDQGEVPNGYNVSRSTTEDFPLRLLSAAPSQTSVYFCASSYSVDSPLHFGNGTRLSVL
B12: recognises (NR0B1 peptide on HLA [2]).

B13: TCR of SEQ ID NOs 453 and 454 (TCR, V domains shown)
Valpha: KQEVTQIPAALSVPEGENLVLNCSFTDSAIYNLQWFRQDPGKGLTSLLLIQSSQREQTSGRLNASLDKSSGRSTLYIAASQPGDSATYLCAVGTDSWGKFQFGAGTQVVVTP
Vbeta: NAGVTQTPKFQVLKTGQSMTLQCAQDMNHEYMSWYRQDPGMGLRLIHYSVGAGITDQGEVPNGYNVSRSTTEDFPLRLLSAAPSQTSVYFCASSFSPNTEAFFGQGTRLTVV
B13: recognises (NR0B1 peptide on HLA [2]).

B14: TCR of SEQ ID NOs 485 and 486 (TCR, V domains shown)
Valpha: KQEVTQIPAALSVPEGENLVLNCSFTDSAIYNLQWFRQDPGKGLTSLLLIQSSQREQTSGRLNASLDKSSGRSTLYIAASQPGDSATYLCAVRLRGSARQLTFGSGTQLTVLP
Vbeta: NAGVTQTPKFRVLKTGQSMTLLCAQDMNHEYMYWYRQDPGMGLRLIHYSVGEGTTAKGEVPDGYNVSRLKKQNFLLGLESAAPSQTSVYFCASSYSIEFTEAFFGQGTRLTVV
B14: recognises (PAGE2 peptide on HLA).

B15: TCR of SEQ ID NOs 487 and 488 (TCR, V domains shown)
Valpha: KQEVTQIPAALSVPEGENLVLNCSFTDSAIYNLQWFRQDPGKGLTSLLLIQSSQREQTSGRLNASLDKSSGRSTLYIAASQPGDSATYLCALGYRGSARQLTFGSGTQLTVLP
Vbeta: NAGVTQTPKFRVLKTGQSMTLLCAQDMNHEYMYWYRQDPGMGLRLIHYSVGEGTTAKGEVPDGYNVSRLNKREFSLRLESAAPSQTSVYFCASSVGYPGELFFGEGSRLTVL
B15: recognises (PAGE2 peptide on HLA).

B16: TCR of SEQ ID NOs 461 and 462 (TCR, V domains shown)
Valpha: KQEVTQIPAALSVPEGENLVLNCSFTDSAIYNLQWFRQDPGKGLTSLLLIQSSQREQTSGRLNASLDKSSGRSTLYIAASQPGDSATYLCAVSRSWGKFQFGAGTQVVVTP
Vbeta: NAGVTQTPKFQVLKTGQSMTLQCAQDMNHEYMSWYRQDPGMGLRLIHYSVGAGITDQGEVPNGYNVSRLNKREFSLRLESAAPSQTSVYFCASSLTGGAEYGYTFGSGTRLTVV
B16: recognises (PAEP peptide on HLA).

B17: TCR of SEQ ID NOs 515 and 516 (TCR, V domains shown)
Valpha: KQEVTQIPAALSVPEGENLVLNCSFTDSAIYNLQWFRQDPGKGLTSLLLIQSSQREQTSGRLNASLDKSSGRSTLYIAASQPGDSATYLCAVVSNNDMRFGAGTRLTVKP
Vbeta: NAGVTQTPKFQVLKTGQSMTLQCAQDMNHEYMSWYRQDPGMGLRLIHYSVGAGITDQGEVPNGYNVSRSTTEDFPLRLLSAAPSQTSVYFCASSLHSPVQGDYGYTFGSGTRLTVV
B17: recognises (RLN1 peptide on HLA).

B18: TCR of SEQ ID NOs 449 and 450 (TCR, V domains shown)
Valpha: KQEVTQIPAALSVPEGENLVLNCSFTDSAIYNLQWFRQDPGKGLTSLLLIQSSQREQTSGRLNASLDKSSGRSTLYIAASQPGDSATYLCAVRPGDSWGKLQFGAGTQVVVTP
Vbeta: NAGVTQTPKFQVLKTGQSMTLQCAQDMNHEYMSWYRQDPGMGLKLIYYSVGAGITDKGEVPNGYNVSRSTTEDFPLRLLSAAPSQTSVYFCASSSPVGTAFFGQGTRLTVV
B18: recognises (NR0B1 peptide on HLA [2]).

B19: TCR of SEQ ID NOs 455 and 456 (TCR, V domains shown)
Valpha: KQEVTQIPAALSVPEGENLVLNCSFTDSAIYNLQWFRQDPGKGLTSLLLIQSSQREQTSGRLNASLDKSSGRSTLYIAASQPGDSATYLCAVRGYQKVTFGTGTKLQVIP
Vbeta: NAGVTQTPKFQVLKTGQSMTLQCAQDMNHEYMSWYRQDPGMGLRLIHYSVGAGITDQGEVPNGYNVSRSTTEDFPLRLLSAAPSQTSVYFCATSGLNTEAFFGQGTRLTVV
B19: recognises (NR0B1 peptide on HLA [1]).

B20: TCR of SEQ ID NOs 443 and 444 (TCR, V domains shown)
Valpha: QKEVEQNSGPLSVPEGAIASLNCTYSDRGSQSFFWYRQYSGKSPELIMSIYSNGDKEDGRFTAQLNKASQYVSLLIRDSQPSDSATYLCAVNDSWGKLQFGAGTQVVVTP
Vbeta: DGGITQSPKYLFRKEGQNVTLSCEQNLNHDAMYWYRQDPGQGLRLIYYSQIVNDFQKGDIAEGYSVSREKKESFPLTVTSAQKNPTAFYLCASSMVPGFSEQFFGPGTRLTVL
B20: recognises (NPSR1 peptide on HLA).

B21: TCR of SEQ ID NOs 447 and 448 (TCR, V domains shown)
Valpha: QKEVEQNSGPLSVPEGAIASLNCTYSDRGSQSFFWYRQYSGKSPELIMSIYSNGDKEDGRFTAQLNKASQYVSLLIRDSQPSDSATYLCAVSAAGNKLTFGGGTRVLVKP
Vbeta: NAGVTQTPKFRILKIGQSMTLQCTQDMNHNYMYWYRQDPGMGLKLIYYSAGAGITDKGEVPNGYNVSRSTTEDFPLRLELAAPSQTSVYFCASSYFGEQYFGPGTRLTVT
B21: recognises (NPSR1 peptide on HLA).
